The values that follow come from US20260028424A1 (GRANULAR THERAPEUTICS, published 2026).

Residue numbers refer to the chain shown, from its start.

T1: biotinylated cynomolgus CD203c (bio-cyCD203c, Icosagen) (cynomolgus monkey, UniProt A0A2K5TKP4 31-874, biotinylated (site not stated))
T1 construct: Captured on a Biotin CAPture chip for SPR; also called cyno CD203c
T1 sequence: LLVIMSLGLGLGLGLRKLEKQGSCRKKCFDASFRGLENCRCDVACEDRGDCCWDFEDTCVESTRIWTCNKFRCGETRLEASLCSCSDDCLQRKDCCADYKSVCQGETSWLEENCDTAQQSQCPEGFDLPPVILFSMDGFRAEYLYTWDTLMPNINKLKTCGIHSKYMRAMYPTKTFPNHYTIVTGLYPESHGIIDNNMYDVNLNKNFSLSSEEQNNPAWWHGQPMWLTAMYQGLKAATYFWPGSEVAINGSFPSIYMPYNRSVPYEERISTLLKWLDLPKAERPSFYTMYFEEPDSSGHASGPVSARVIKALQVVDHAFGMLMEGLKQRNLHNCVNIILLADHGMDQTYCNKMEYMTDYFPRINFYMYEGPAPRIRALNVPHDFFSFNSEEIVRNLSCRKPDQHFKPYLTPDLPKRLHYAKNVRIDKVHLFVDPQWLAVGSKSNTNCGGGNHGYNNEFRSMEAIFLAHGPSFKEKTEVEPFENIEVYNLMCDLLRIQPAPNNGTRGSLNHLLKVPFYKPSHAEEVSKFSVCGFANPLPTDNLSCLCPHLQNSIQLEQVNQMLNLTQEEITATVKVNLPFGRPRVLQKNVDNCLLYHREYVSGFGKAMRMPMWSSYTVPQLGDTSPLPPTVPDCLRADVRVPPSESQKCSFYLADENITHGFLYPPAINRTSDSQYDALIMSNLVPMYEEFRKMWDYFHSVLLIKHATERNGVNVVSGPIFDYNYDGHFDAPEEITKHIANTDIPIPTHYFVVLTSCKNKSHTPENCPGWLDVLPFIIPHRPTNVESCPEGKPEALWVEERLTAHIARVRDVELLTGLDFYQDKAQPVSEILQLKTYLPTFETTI

T2: biotinylated human CD203c (bio-huCD203c, Acro, Cat. nr. H52H4) (human, UniProt O14638 49-875, limits assumed, biotinylated (site not stated))
T2 construct: Captured on a Biotin CAPture chip for SPR
T2 sequence (looked up): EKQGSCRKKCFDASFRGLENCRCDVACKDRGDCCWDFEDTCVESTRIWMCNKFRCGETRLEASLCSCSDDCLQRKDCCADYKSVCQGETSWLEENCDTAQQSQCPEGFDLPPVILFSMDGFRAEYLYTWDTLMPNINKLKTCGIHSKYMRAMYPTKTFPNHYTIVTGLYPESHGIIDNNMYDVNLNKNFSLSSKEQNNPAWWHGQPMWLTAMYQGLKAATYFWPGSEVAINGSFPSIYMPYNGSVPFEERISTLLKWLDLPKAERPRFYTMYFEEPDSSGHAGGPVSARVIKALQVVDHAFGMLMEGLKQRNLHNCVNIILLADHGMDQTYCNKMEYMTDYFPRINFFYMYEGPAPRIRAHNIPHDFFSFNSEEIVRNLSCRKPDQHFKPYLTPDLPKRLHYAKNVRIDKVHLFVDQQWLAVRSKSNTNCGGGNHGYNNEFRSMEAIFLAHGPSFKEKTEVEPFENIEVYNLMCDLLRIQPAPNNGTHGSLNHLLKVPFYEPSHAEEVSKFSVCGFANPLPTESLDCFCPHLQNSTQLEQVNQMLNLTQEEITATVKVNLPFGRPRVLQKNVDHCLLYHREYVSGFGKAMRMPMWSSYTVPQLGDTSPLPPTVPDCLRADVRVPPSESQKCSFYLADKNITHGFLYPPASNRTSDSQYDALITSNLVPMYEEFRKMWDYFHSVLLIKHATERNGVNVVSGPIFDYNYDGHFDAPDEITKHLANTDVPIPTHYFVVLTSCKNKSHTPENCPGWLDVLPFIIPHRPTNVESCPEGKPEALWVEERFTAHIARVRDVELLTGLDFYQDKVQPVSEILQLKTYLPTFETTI

T3: human CD203c expressed on the surface of KU812 cells (human, UniProt O14638 1-875)
T3 construct: whole, on cells; also called cell-surface CD203c; cell surface CD203c on KU812 cells
T3 sequence (looked up): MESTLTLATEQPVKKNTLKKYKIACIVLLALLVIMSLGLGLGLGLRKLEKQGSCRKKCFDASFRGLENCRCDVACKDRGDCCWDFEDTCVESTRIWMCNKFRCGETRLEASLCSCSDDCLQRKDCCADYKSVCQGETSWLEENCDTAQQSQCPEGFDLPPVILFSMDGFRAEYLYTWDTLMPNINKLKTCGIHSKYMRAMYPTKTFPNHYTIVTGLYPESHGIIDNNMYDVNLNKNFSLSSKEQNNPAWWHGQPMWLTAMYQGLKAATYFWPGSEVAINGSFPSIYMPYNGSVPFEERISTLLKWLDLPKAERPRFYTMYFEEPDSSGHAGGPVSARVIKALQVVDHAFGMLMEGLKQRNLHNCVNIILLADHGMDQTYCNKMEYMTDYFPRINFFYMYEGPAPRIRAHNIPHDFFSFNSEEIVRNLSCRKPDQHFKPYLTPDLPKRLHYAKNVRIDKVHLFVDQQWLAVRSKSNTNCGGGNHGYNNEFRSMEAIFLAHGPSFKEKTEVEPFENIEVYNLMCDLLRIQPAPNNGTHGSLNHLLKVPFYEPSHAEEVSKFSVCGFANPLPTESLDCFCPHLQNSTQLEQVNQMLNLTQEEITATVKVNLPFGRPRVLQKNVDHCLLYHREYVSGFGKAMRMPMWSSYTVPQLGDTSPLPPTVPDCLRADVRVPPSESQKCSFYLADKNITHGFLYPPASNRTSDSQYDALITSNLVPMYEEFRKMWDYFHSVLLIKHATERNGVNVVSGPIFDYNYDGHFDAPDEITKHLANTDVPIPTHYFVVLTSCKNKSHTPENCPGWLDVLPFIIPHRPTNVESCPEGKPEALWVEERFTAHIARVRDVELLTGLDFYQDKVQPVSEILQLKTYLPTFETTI

B1: MH1/F6.12 bispecific (parental, before pI engineering) (bispecific antibody, V domains shown)
VH 1: QVQLVQSGAEVKKPGASVKVSCKASGYTFTDYYMNWVRQAPGQGLEWMGRIYPGSGNTYYAQKFQGRVTMTRDTSTSTVYMELSSLRSEDTAVYYCARGVYYYDYWGQGTLVTVSS
VH 2: EVQLVQSGAEVKKPGESLKISCKGSGYRFASNWIGWVRQMPGKGLEWMGEIYPGDSNTRYSPSFQGQVTISADKSISTAYLQWSSLKASDTAMYYCARKDYYYGIMDVWGQGTTVTVSS
VL: DIQMTQSPSSLSASVGDRVTITCRASQGIRTNLAWFQQKPGKAPKSLIYAASSLQSGVPSRFSGSGSGTDFTLTISSLQPEDFATYYCQQYNSYPRTFGGGTKVEIK
notes: Knob-in-hole IgG1null bispecific with human Ckappa; also called parental bispecific MH1/F6.12
B2: FJ2156_MH1_C x F6_12B huIgG1 KIH (bispecific antibody, V domains shown)
VH 1: B1 VH 1 with K13E, K63N
VH 2: B1 VH 2 with E1Q, E46Q
VL: B1 VL
notes: also called MH1_C/F6.12_B
B3: FJ2156_MH1_A x F6_12B huIgG1 KIH (bispecific antibody, V domains shown)
VH 1: B1 VH 1 with Q1E, G66D
VH 2: B1 VH 2 with E1Q, E46Q
VL: B1 VL
notes: also called MH1_A/F6.12_B
B4: FJ2156_MH1_A x F6_12C huIgG1 KIH (bispecific antibody, V domains shown)
VH 1: B1 VH 1 with Q1E, G66D
VH 2: B1 VH 2 with E1Q, S61R
VL: B1 VL
notes: also called MH1_A/F6.12_C
B5: bispecific pair with alternative common light chain VL1: MH1 VH / 2.7_1 VH / VL1 (bispecific antibody, V domains shown)
VH 1: B1 VH 1
VH 2: EVQLVESGPGLVKPSETLSLTCTVSGGSISSSSYYWGWIRQPPGKGLEWIGSMYYSGSTYHNPSLKSRVIISVDTSKNQFSLKLSSVTAADTAVYYCARHYITVAGIFDYWGQGTLVTVSS
VL: QSVLTQPPSASGTPGQRATISCRASQGIRTNLAWYQQVPGTAPKLLIYAASSLQSGVPSRFSGSKSGTSASLAISGLQSEDEADYYCQQYNSYPRTFGGGTKLTVL
notes: Format as tested (bispecific or separate IgGs) is not described beyond 'bispecific pairs'
B6: bispecific pair with alternative common light chain VL2: MH1 VH / 2.7_1.2 VH / VL2 (bispecific antibody, V domains shown)
VH 1: B1 VH 1
VH 2: B5 VH 2
VL: B5 VL with A49S, A50N, S51N, S52Q, L53R, Q54P, S59D
B7: F6/MH1 common light chain bispecific (anti-CD203c F6 x anti-c-Kit MH1) (bispecific antibody, V domains shown)
VH 1: B1 VH 1
VH 2: B1 VH 2 with G104Y, I105A
VL: B1 VL
notes: Knob-in-hole IgG1null bispecific with human Ckappa; also called F6/MH1 bispecific molecule
B8: bispecific pair with alternative common light chain VL4: MH1 VH / 2.14_1.2 VH / VL4 (bispecific antibody, V domains shown)
VH 1: B1 VH 1
VH 2: QVQLQESGPGLVKPSQTLSLTCTVSGGSISSGGYYWSWIRQHPGKGLEWIGIIYYSGSTYYNPSLKSRVTISVDTSKNQFSLKLNSVTAADTAVFYCARVAIVTTIPGGMDVWGQGTTVTVSS
VL: EIVLTQSPDFQSVTPKEKVTITCRASQGIRTNLAWYQQKPDQSPKLLIKYASQSFSGVPSRFSGSGSGTDFTLTINSLEAEDAATYYCQQYNSYPRTFGQGTKVEIK

Chain of cyno c-Kit (SPR) (chain, as listed by the source): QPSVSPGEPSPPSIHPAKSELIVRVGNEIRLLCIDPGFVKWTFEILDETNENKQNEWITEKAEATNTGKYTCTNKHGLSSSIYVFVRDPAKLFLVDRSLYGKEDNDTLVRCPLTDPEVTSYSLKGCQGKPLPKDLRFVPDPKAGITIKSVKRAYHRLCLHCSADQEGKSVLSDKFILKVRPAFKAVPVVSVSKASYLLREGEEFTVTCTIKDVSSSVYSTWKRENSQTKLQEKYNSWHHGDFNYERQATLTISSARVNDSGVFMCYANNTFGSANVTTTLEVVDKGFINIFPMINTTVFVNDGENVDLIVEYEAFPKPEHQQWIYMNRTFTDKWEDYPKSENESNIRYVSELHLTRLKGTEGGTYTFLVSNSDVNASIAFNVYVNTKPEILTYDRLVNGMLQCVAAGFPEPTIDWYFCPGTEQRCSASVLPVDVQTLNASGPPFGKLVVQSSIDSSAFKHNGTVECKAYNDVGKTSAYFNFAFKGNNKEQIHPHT
Chain of human c-Kit (SPR) (P10721 26-520 limits assumed): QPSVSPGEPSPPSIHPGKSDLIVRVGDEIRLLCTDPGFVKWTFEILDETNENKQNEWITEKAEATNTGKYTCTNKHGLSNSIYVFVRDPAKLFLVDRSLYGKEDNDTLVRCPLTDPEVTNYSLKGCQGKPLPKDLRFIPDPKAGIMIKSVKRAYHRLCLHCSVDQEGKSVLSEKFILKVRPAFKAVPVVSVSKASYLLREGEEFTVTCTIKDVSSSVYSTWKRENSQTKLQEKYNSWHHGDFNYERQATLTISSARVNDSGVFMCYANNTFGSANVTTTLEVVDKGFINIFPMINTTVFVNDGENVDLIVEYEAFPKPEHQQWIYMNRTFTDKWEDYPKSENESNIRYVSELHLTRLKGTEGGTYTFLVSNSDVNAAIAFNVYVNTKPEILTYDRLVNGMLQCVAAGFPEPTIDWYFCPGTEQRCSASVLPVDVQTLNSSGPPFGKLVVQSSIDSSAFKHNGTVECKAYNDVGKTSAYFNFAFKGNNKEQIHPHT
Chain of c-Kit (antigen of the binding assay of FIG. 9A) (P10721 26-524 limits assumed): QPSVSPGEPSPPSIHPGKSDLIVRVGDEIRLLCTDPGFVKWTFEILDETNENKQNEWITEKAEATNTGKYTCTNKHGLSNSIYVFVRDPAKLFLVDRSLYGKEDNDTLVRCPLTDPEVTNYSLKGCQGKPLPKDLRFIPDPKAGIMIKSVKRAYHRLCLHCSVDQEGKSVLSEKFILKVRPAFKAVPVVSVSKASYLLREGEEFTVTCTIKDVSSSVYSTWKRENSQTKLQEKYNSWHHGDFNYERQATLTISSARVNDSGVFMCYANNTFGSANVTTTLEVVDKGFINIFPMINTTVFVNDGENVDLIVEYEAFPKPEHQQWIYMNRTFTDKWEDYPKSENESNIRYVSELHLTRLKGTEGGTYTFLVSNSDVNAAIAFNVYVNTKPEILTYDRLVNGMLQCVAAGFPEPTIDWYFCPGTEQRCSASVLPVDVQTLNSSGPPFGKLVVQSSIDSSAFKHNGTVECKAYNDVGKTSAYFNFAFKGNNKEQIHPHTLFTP

One experiment concerns the target human c-Kit (SPR) (human, UniProt P10721 26-520, limits assumed). Put plainly: SPR, single-cycle kinetics, Human C-kit.
As to B1, the Kd was determined as 45.1 nM, the koff stood at 0.00978 s⁻¹ and the kon was 217000 M⁻¹ s⁻¹.
On the same counts, the results for B2 are 44.5 nM, 0.00949 s⁻¹ and 213000 M⁻¹ s⁻¹.
Taken in the same sequence, the figures for B3 were 82.7 nM, 0.0166 s⁻¹ and 201000 M⁻¹ s⁻¹.
B4 registered a Kd of 86.1 nM, a koff of 0.0171 s⁻¹ and a kon of 199000 M⁻¹ s⁻¹.

Another experiment has as its target cyno c-Kit (SPR) (cyno, UniProt F6V858 26-520 (rhesus entry)). Nature of the experiment: SPR, single-cycle kinetics, Cynomolgus C-kit.
Molecule B1 registered a Kd of 52.7 nM, a koff of 0.0159 s⁻¹ and an on-rate (kon) of 301000 M⁻¹ s⁻¹.
Consider B2, for which the affinity, expressed as Kd, was 52.4 nM; the off-rate constant (koff) was determined as 0.0155 s⁻¹; the kon stood at 295000 M⁻¹ s⁻¹.
On the same counts, the results for B3 are 95.5 nM, 0.0277 s⁻¹ and 291000 M⁻¹ s⁻¹.
Taken in the same sequence, the figures for B4 were 91.3 nM, 0.0272 s⁻¹ and 297000 M⁻¹ s⁻¹.

Another experiment concerns the target c-Kit (antigen of the binding assay of FIG. 9A) (Homo sapiens (Human), UniProt P10721 26-524). Put plainly: plate binding assay on Human c-KIT, A450-A630 (ratio corrected).
Regarding B5, the “EC50 (read off the curve)” value is ~0.06 µg/mL.
Still for that read-out and setting: under B6 stands ~0.06 µg/mL; under B7, ~0.5 µg/mL.
Same read-out and setting: the result for B8 reads ~0.06 µg/mL.

For another experiment, the target named is T1, biotinylated cynomolgus CD203c …. Nature of the experiment: SPR, single-cycle protocol, Bio-cyCD203c; table gives Rmax, Chi2 and KD only. Background: Surface plasmon resonance follows binding to a sensor surface in real time, without labels.
The molecule B2 returned a Kd of 75.8 nM.
In turn, B3 yielded a Kd of 68.2 nM.
For the molecule B4, the Kd is 51.8 nM.

Another experiment has as its target T2, biotinylated human CD203c …. Put plainly: SPR, single-cycle protocol, Bio-huCD203c; table gives Rmax, Chi2 and KD only.
Turning to B2, binding was characterised by a dissociation constant (Kd) of 108 nM. This lies in the sub-micromolar range.
As for B3, binding was characterised by a dissociation constant (Kd) of 98.5 nM.
Same read-out and setting: the result for B4 reads 84.8 nM.

The target of a further experiment is T3, human CD203c expressed on the surface …. Nature of the experiment: flow cytometry on KU812 cells, which carry both c-Kit and CD203c (median fluorescence intensity); signal not separated by target. As to the method:
(§1) All treatments were performed on cells seeded in T75 flasks at a seeding density of 0.3e6/ml. Cells were cultured in the presence of 80 ng/ml of SCF and treated with 20 ng/ml of IL3 24 hours prior to antibody staining. Following SCF/IL3 treatment, cells were harvested and stained with live dead stain (Zombie UV Biolegend 423108). Cells were then stained with a titration of anti-CD203c antibodies/bispecifics or respective isotype controls in a 5-fold dilution series starting at 50 μg/mL and detected with Anti human-Fc AF647 antibody (JIR 109-605-098). Samples were subsequently run on a Yeti analyzer, gating on 10K live cells. Subsequent analysis was performed using FlowJo software and data represented as MFI (median fluorescent intensity).
For orientation: In flow cytometry, cells or beads pass a laser one at a time.
On to B2, for which the response was half-maximal at 0.238 nM (EC50).

The next experiment deals with T4, c-Kit on KU812 cells (UniProt P10721 26-976, limits assumed).
T4 construct: whole, on cells; also called c-Kit receptor; CD117
T4 sequence (P10721 26-976 limits assumed): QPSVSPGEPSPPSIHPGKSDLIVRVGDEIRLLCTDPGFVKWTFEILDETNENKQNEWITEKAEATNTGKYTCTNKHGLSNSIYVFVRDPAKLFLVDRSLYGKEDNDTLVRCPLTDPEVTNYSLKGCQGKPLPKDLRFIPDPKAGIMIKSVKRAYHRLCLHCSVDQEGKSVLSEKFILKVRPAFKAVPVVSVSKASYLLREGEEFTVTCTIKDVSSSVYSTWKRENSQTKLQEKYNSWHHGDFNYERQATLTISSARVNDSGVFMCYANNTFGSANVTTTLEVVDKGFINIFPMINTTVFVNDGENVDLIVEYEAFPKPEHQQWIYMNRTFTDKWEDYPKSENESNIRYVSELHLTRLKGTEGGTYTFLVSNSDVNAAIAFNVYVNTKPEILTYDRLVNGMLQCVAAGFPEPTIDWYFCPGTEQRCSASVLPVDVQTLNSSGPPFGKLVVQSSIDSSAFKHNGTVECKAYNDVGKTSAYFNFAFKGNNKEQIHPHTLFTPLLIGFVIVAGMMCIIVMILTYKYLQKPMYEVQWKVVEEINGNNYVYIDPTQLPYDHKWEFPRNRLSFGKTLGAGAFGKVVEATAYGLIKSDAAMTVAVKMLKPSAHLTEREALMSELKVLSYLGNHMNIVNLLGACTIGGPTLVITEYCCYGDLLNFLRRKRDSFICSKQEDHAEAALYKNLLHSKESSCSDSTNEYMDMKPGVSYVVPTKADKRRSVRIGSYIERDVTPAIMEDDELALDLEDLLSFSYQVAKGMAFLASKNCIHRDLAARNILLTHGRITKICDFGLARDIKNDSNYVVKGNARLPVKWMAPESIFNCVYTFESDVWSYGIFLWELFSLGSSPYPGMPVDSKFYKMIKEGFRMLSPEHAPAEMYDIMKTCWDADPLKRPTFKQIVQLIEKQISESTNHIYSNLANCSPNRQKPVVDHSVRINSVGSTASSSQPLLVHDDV
The description is as above. As to the method: as §1
B1 gave an EC50 of 0.548 nM.
The molecule B2 yielded an EC50 of 0.238 nM. Compared with the last molecule, the EC50 is about 2.3-fold lower.

In general, Kd refers to the equilibrium constant for the complex coming apart. A low value points to tighter binding. What is called koff is the rate constant with which the complex falls apart. For orientation: kon means the second-order rate constant of association. Usually EC50 (read off the curve) stands for the concentration that produces a half-maximal response. What is called EC50 is the concentration giving half of the maximal effect. A high value points to lower potency in that assay.
